# From patent US20100297149A1 (ATYR PHARMA, published 2010)
# T1: human CCR1-EGFP expressed on HEK293T cells (human, UniProt P32246 1-355)
# T1 construct: whole, on cells; Transiently transfected HEK293T cells; the fusion localized to the cell membrane; also called CCR1-expressing cells; not shown: EGFP from the pEGFP-N1 vector
# T1 sequence (looked up): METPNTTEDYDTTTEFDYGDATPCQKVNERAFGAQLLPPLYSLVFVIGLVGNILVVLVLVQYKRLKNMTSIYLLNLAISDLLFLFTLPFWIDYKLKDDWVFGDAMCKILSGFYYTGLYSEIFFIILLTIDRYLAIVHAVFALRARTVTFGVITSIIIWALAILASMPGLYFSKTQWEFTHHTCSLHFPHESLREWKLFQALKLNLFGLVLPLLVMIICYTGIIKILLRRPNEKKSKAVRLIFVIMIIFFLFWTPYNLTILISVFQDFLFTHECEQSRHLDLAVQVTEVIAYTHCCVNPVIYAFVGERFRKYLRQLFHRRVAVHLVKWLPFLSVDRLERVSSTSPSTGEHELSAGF
# Target: T1, human CCR1-EGFP expressed on HEK293T …
# Experiment: flow cytometry (FACS) on CCR1-EGFP-transfected HEK293T cells, detection with FITC anti-tag antibody
# Method: Human CCR5 was amplified and cloned into to pEGFP-N1 vector. Human CCR1 receptor, also a CC chemokine receptor, was included as a control. HEK293T cells were transfected with CCR5-EGFP or CCR1-EGFP plasmids and 1d after transfection, cells were washed with PBS and detached from culture dish by trypsin. 1×10″6 cells were put into FACS tube in 100 μl complete media and kept on ice (cells were kept cold for remainder of the assay). Cells were treated with recombinant HRS-SV11 protein for 45′. Then cells were washed once with 1 ml staining buffer (1×PBS+3% FBS) and spin down at 4° C., 400×g for 10′. After wash, cells were incubated with 0.3 μl primary anti-V5-FITC antibody (3 μg/ml) in 100 μl staining buffer for 30′ in dark (kept in dark for remainder of the assay). Cells were then washed twice with 1 ml staining buffer, 4° C., 400×g for 10′ and spun down. After the final wash, cell pellets were resuspended in 800 μl staining buffer and analyzed immediately by FACS.
binder,measurement,value
"recombinant HRS-SV11 splice variant polypeptide of human histidyl-tRNA synthetase with C-terminal polyhistidine tag (6xHis) (ligand, Expressed in E. coli from pET20b (EcoRV/NotI, no stop codon) and purified on Ni-NTA; By gel filtration it switches between monomer and dimer; also called wild type HRS-SV11) MAERAALEELVKLQGERVRGLKQQKASAELIEEEVAKLLKLKAQLGPDESKQKFVLKTPKALEEKIRTTETQVLVASAQKKLLEERLKLVSELWDAGIKAELLYKKNPKLLNQLQYCEEAGIPLVAIIGEQELKDGVIKLRSVTSREEVDVRREDLVEEIKRRTGQPLCICHHHHHH",binding result,no binding
